Substitutions are numbered along the chain they refer to.
T1: HCV Core1-169 (HCV-1, UniProt P26664 1-169)
T1 construct: also called Solid Phase HCV Core
T1 sequence: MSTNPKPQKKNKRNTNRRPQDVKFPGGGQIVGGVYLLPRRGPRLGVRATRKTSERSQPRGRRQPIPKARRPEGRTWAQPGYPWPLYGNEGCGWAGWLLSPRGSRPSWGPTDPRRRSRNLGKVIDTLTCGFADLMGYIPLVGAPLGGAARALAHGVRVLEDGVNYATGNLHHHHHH

B1: HCV 208A-692 (antibody, V domains shown)
VH: QGQMQQSGAELAKPGASVKLSCKTSGFTFSSSYISWLKQKPGQSLEWIAWIFAGTGNTNYNQKFTDKAQLTVDTSSSTAYMQLSSLTTEDSAIYYCAISGTGFTYWGQGTLVTVSA
VL: EVLMTQSPLSLPVSLGDQASISCRSSQSLEHSNGNTYLEWFLQRPGQPPKLLIYKVSSRFSGVPDRFSGSGSGTDFTLKISRVEAEDLGVYYCFQGSHVPFTFGSGTKLAIKR
B2: HCV 208A-422 (antibody, V domains shown)
VH: DVQLQESGPGLVNPSQSLSLTCSVTGYSITSGYYWIWIQQSPGNKLEWMGYIKYDGGNNYSPSLKNRISIARDTSKNQCFLKLNSVTIEDTATYYCTRGSDSFDYWGQGTTLTVSS
VL: DIVLTQSPASLAVSLGQRAIISCKASQSVSFAGTNLMHWYQQKPGQQPKLLIYRASNLETGVPTRFSGSGSRTDFTLNIHPVEEDDAATYYCQQSREYYTFGGGTKLEIKR
B3: HCV 208B-862 (antibody, V domains shown)
VH: DVQLQESGPGLVKPSQSLSLTCTVTGYSITSDYAWNWIRQFPGNKLEWMGYISYSGTTVYSPSLKSRISITRDTSKNQFFLQLNSVTIEDSATYYCGGNYWGQGTLVTVSA
VL: DVVLTQTPLSLPLSLGDQASISCRSSQTLLHSDGDTYLHWYLQKPGQSPKLLIYKLSNRFSGVPDRFSGSGSGTDFTLKISRVEAEDLGVYFCSQSTHVPYTFGGGTKLEIKR
B4: HCV 208A-207 (antibody, V domains shown)
VH: QGQLQQPGAEFVKPGASLKLSCRASGYTFTSYWIHWVKQRPGQGLEWIGEIDPSDSYINQNQKFRGKATLTVDKSSSTAYMELSGLTSEDSAVYYCARHYYGVLDSWGQGTTLTVSS
VL: DIVLTQSPATLSVTPGDRVSLSCRASQRIYNYLHWYQQKSHESPRLLTKYASQSISGIPSRFSGSGSGTDFILTINSVETEDFGMYFCQQSNSWPLTFGAGTKLELRR
B5: HCV 208B-1096 (antibody, V domains shown)
VH: QVQLQQSGAGLAKPGASVKMSCKASGYTFTANKMHWAKQRPGQGLEWIGYIDPSSGYTEYNHKIQYKATLTADTSSSTAYMQLSTLTFEDSAVYYCTNFAYWGQGTLVTVSA
VL: DIVMTQTPLTLSVTIGQPASISCKSSQSLLFTNGKTYLNWFLQRPGQSPKRLIYLLSKLDSGVPDRFSGSGSGTDFTLKISRVEAEDLGVYYCLQSTYFPLTFGAGTKLELKR
B6: HCV 208B-395 (antibody, V domains shown)
VH: B5 VH with A37T, E59Q, Y66D, T85S
VL: B4 VL with T48I
B7: HCV 208A-110 (antibody, V domains shown)
VH: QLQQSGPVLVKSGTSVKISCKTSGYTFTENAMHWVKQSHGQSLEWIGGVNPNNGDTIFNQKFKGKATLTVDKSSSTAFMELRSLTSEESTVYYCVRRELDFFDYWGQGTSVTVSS
VL: DIVLTQSPASLAVSLGQRATISCRASQSVSTSRYSYMHWYQQKPGQPPKLLIKYASNLESGVPARFSGSGSGTDFTLNIHPVAEEDTAAYYCQHSWEFPFTFGSGTKLEIKR
B8: HCV 208A-557 (antibody, V domains shown)
VH: B1 VH with A12V, F52Y
VL: B7 VL with V3A, K49E, A83G, A89T, E97D
B9: HCV 208A-741 (antibody, V domains shown)
VH: QLQQSGPVLVKPGASVMISCKTSGYTFTENAMHWVKQSHGKSLEWIGGVNPNNGDTIFNQKFKGKATLTVDKSSSTAFMELRSLTSEESTVYYCVRRELDFFDYWGQGTSVTVSS
VL: B7 VL with A19T, R24G, Y34F
B10: HCV 208A-293 (antibody, V domains shown)
VH: EVQLQQSGPELVKPGASVKISCKASGFTFTEYAMHWMKQSHGKSLEWIGGINPTNGDAIYNQKFKDKAKLTVDRSSSTAYMELRSLTSDDSALFYCARRELDYFPSWGQGTTLTVSS
VL: B7 VL with A12I, Y34F, M37V, Y40I, A64V, T76I, A83E, A89T, Y91F
B11: HCV 208B-612 (antibody, V domains shown)
VH: EVQLQQSGPELVKPGASVKMSCKASGYRFTSYVMHWVRQKPGQGLEWIGYIDPHNDDTKYSEKFRGKATLTSDKSSTTAYMELSSLTSEDSAVYYCVRYSYDRDYSPMDYWGQGTSVTVSS
VL: QIVLTQSPTLMSASPGEKVTMTCSASSTVTYIYWYQQKPGSSPRLWMYDTFNLVSGVPARFSGSRSGTSYFLTISSMEGEDAATYYCQQYSDSPYTFGGGTKLEIKR

How the values were obtained:
HCV Core1-169 [1] = target: T1, HCV Core1-169; test: sandwich EIA, capture 208B-395-334
HCV Core1-169 [2] = target: T1, HCV Core1-169; test: sandwich EIA, capture 208A-293
HCV Core1-169 [3] = target: T1, HCV Core1-169; test: sandwich EIA, NC capture mAb; note: test concentration or dose not given here
HCV Core1-169 [4] = target: T1, HCV Core1-169; test: sandwich EIA, capture C11-9
HCV Core1-169 [5] = target: T1, HCV Core1-169; test: sandwich EIA, capture 208B-612-226
HCV Core1-169 [6] = target: T1, HCV Core1-169; test: sandwich EIA, capture 208A-207-271
HCV Core1-169 [7] = target: T1, HCV Core1-169; test: sandwich EIA, capture C11-7
HCV Core1-169 [8] = target: T1, HCV Core1-169; test: sandwich EIA, capture 208B-1096
HCV Core1-169 [9] = target: T1, HCV Core1-169; test: sandwich EIA, capture 208B-741
HCV Core1-169 [10] = target: T1, HCV Core1-169; test: sandwich EIA, capture 208A-692
HCV Core1-169 [11] = target: T1, HCV Core1-169; test: sandwich EIA, capture 208A-557
HCV Core1-169 [12] = target: T1, HCV Core1-169; test: sandwich EIA, capture 208A-110
HCV Core1-169 [13] = target: T1, HCV Core1-169; test: EIA, core captured by anti-domain 1 mAb
HCV Core1-169 [14] = target: T1, HCV Core1-169; test: EIA, coated core1-169
[15] = target: HCV Core 134-171-TT peptide (ALRZ-9 peptide) (HCV-1); test: SPR, captured mAb;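 note: Anti-HCV Core mAbs from hybridoma supernatants held on a rabbit anti-mouse IgG CM5 surface, peptide flowed over 3 min then 4 min dissociation, duplicate concentrations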
HCV Core1-169 [16] = target: T1, HCV Core1-169; test: SPR sandwich, C11-9 capture
HCV Core1-169 [17] = target: T1, HCV Core1-169; test: SPR sandwich, C11-7 capture
HCV Core1-169 [18] = target: T1, HCV Core1-169; test: SPR sandwich, C11-3 capture
HCV Core1-169 [19] = target: T1, HCV Core1-169; test: SPR sandwich, C11-14 capture
[20] = target: HCV Core 134-171-TT peptide (ALRZ-9 peptide) (HCV-1); test: SPR, captured mAb; remark: listed apart in the source;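 note: Anti-HCV Core mAbs from hybridoma supernatants held on a rabbit anti-mouse IgG CM5 surface, peptide flowed over 3 min then 4 min dissociation, duplicate concentrations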

| Binder | OD492 (HCV Core1-169 [1]) [OD] | OD492 (HCV Core1-169 [2]) [OD] | OD492 (HCV Core1-169 [3]) [OD] | OD492 (HCV Core1-169 [4]) [OD] | OD492 (HCV Core1-169 [5]) [OD] | OD492 (HCV Core1-169 [6]) [OD] | OD492 (HCV Core1-169 [7]) [OD] | OD492 (HCV Core1-169 [8]) [OD] | OD492 (HCV Core1-169 [9]) [OD] | OD492 (HCV Core1-169 [10]) [OD] | OD492 (HCV Core1-169 [11]) [OD] | OD492 (HCV Core1-169 [12]) [OD] | Kd [20] [pM] | koff [20] [s⁻¹] | kon [20] [M⁻¹ s⁻¹] | also measured |
| --- | --- | --- | --- | --- | --- | --- | --- | --- | --- | --- | --- | --- | --- | --- | --- | --- |
| B1 | 0.44 | 0.51 | 0.4 | 2.66 | 0.37 | 0.39 | 2.92 | 0.38 | 0.44 | 0.35 | 0.53 | 0.54 |  |  |  |  |
| B2 |  |  |  |  |  |  |  |  |  |  |  |  |  |  |  | OD (A492) (HCV Core1-169 [13]): 0.18 OD; OD (A492) (HCV Core1-169 [14]): 1.68 OD |
| B3 |  |  |  |  |  |  |  |  |  |  |  |  |  |  |  | Kd [15]: 70 pM; koff [15]: 0.0001 s⁻¹; kon [15]: 1.4e+06 M⁻¹ s⁻¹; expected % binding (HCV Core1-169 [16]): 8.9%; expected % binding (HCV Core1-169 [17]): 15.2%; OD (A492) (HCV Core1-169 [13]): 1.07 OD; expected % binding (HCV Core1-169 [18]): 11.2%; expected % binding (HCV Core1-169 [19]): 12.6%; OD (A492) (HCV Core1-169 [14]): 0.49 OD |
| B4 | 0.37 | 0.42 | 0.37 | 2.2 | 0.33 | 0.36 | 2.47 | 0.33 | 0.3 | 0.42 | 0.82 | 0.38 | < 32 | < 1e-05 | 310000 |  |
| B5 | 0.2 | 0.24 | 0.17 | 0.33 | 0.24 | 0.18 | 1.06 | 0.26 | 0.23 | 0.15 | 0.17 | 0.19 | 460 | 0.0006 | 1.3e+06 |  |
| B6 | 0.23 | 0.26 | 0.2 | 0.32 | 0.26 | 0.2 | 0.89 | 0.23 | 0.21 | 0.15 | 0.21 | 0.21 | 360 | 0.00047 | 1.3e+06 |  |
| B7 | 0.22 | 0.2 | 0.15 | 0.13 | 0.2 | 0.17 | 0.18 | 0.21 | 0.2 | 0.14 | 0.17 | 0.18 | 330 | 0.00055 | 1.7e+06 |  |
| B8 | 0.28 | 0.41 | 0.18 | 0.14 | 0.25 | 0.18 | 0.22 | 0.35 | 0.38 | 0.13 | 0.32 | 0.44 | 91 | 0.00021 | 2.4e+06 |  |
| B9 | 0.34 | 0.42 | 0.29 | 2.13 | 0.29 | 0.33 | 2.36 | 0.52 | 0.36 | 0.32 | 0.4 | 0.42 | 410 | 0.00069 | 1.7e+06 |  |
| B10 | 0.44 | 0.49 | 0.37 | 2.6 | 0.37 | 0.39 | 2.87 | 0.41 | 0.5 | 0.34 | 0.52 | 0.52 | 110 | 0.00023 | 2.1e+06 |  |
| B11 | 0.83 | 0.28 | 0.21 | 0.64 | 0.23 | 0.24 | 1.52 | 0.7 | 0.23 |  | 0.23 | 0.26 | 350 | 6.5e-05 | 180000 |  |

— US9371374 (AbbVie / Abbott, dated 2016)
